Measured values from PMC4872100.
pKd: −log10 of the molar value.

Legend:
Test in all cases: SPR
[1] = target: human uracil DNA glycosylase (human UDG) (human) (UniProt P13051)
[2] = target: Mycobacterium tuberculosis uracil DNA glycosylase (TBUDG) (Mycobacterium tuberculosis) (UniProt P9WFQ9)
[3] = target: Epstein-Barr virus (human herpesvirus 4) uracil DNA glycosylase (EBVUDG) (Epstein-Barr virus (EBV; human herpesvirus 4)) (UniProt P12888)

## SAUGI E24AQ52R (natural protein)
[1]
  pKd: 8.48
  koff: 0.00529 s⁻¹
  kon: 1.6e+06 M⁻¹ s⁻¹

## Staphylococcus aureus uracil-DNA glycosylase inhibitor SAUGI (natural protein)
[1]
  pKd: 8.71
  koff: 0.00361 s⁻¹
  kon: 1.85e+06 M⁻¹ s⁻¹
[2]
  pKd: 6.70
  ka1 (two-state model, step 1): 4.32e+06 M⁻¹ s⁻¹
  ka2 (two-state model, step 2): 20 M⁻¹ s⁻¹
  kd1 (two-state model, step 1): 1.39 s⁻¹
[3]
  pKd: 9.32
  koff: 0.0012 s⁻¹
  kon: 2.54e+06 M⁻¹ s⁻¹
